Test results from article PMC5604497.

Biological target: leucine zipper domain of the transcription factor GCN4 from Saccharomyces cerevisiae (fusions with T18 and T25) (Saccharomyces cerevisiae)
Test: two-hybrid; bacterial two-hybrid (BACTH), T18 and T25 fusions co-overexpressed in adenylate-cyclase-deficient E. coli BTH-101, LB pH 7, aerobic, OD600 ~0.6; ß-galactosidase activity (ONPG) in Miller units, three biological replicates; background with empty vectors about 400 MU

“leucine zipper domain of the transcription factor GCN4 from Saccharomyces cerevisiae (fusions with T18 and T25) (domain or fragment)” showed a ß-galactosidase activity of 1200 MU.
